Results from patent CN114835814A.

Molecular target: 人源PGII蛋白 (human pepsinogen II from human gastric mucosa, Lee Biosolutions, cat. 440-50) (human) (UniProt P20142)
Test: indirect ELISA, human-derived PGII coated 2 μg/mL, culture supernatant diluted 50-fold

Chain of UniProt P20142 (P20142 17-388): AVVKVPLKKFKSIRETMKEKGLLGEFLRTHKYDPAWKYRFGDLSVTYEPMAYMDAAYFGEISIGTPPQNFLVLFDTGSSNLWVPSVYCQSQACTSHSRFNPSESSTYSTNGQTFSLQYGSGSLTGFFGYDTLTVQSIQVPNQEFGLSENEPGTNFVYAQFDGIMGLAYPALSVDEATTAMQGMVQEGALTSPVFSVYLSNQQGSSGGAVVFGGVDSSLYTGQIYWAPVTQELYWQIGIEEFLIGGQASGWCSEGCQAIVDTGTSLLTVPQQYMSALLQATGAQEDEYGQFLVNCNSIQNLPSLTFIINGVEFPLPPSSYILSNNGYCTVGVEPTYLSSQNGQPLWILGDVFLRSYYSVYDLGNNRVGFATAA

B1: 鼠单克隆抗体1A7 (antibody, V domains shown)
VH: EVKLEESGGGLVQPGGSMKLSCVASGFAFSNYWMNWVRQSPEKGLEWVAEIRLKSNNYATHYAESVKGRFTISRDDSKSSVDLQMNNLRAEDTGTYYCNPFFYDYGYWGQGTTLTVSS
VL: QIVLTQSPAILSASPGEKVTISCSASSSVSYMYWYQQKPGSSPKPWIYRTSNLASGVPARFSGSGSGTSYSLTISSMEAEDAATYYCQQYHSYPRTFGGGTKLEIK
OD450: 1.7 OD450

B2: 鼠单克隆抗体3G10 (antibody, part only; not given: Light chain variable domain, V domains shown, part only)
VH: EVQLQQSGAELVKPGASVKLSCTASGFNIKDSYIHWVTQRPDQGLEWIGMIDPTNDNIRYDPKFQGRATITADTSSNTAYLQLSSLTSEDTAVYFCARDGTSLDYWGQGTSLTVSS
OD450: 1.72 OD450
